# Reference: publication PMC8319299
# Legend:
# [1] = biological target: EED (amino acids 40-441) (human) (UniProt O75530); assay: fluorescence polarisation; fluorescence anisotropy displacement titration: 2-fold serial dilutions of unlabelled peptide with 10 µM EED and 40 nM 5-FAM labelled JARID2-K116me3 peptide; same buffer, 30 °C; Kd of the unlabelled peptide from a fit
# [2] = test system: PRC2-PALI1 PIR (Homo sapiens), Q15910-2+O75530+Q15022+Q09028+Q96JN0-3; assay: EMSA; conditions: 50 mM Tris-HCl pH 7.5 (25 C), 100 mM KCl, 2 mM 2-mercaptoethanol, 0.1 mg/mL BSA, 0.05% NP-40; FA at 30 C; nucleosome EMSA with 5% glycerol at 4 C (+5 ng/uL …)
# [3] = test system: PRC2 core (EZH2-EED-SUZ12-RBBP4) (Homo sapiens), Q15910-2+O75530+Q15022+Q09028; assay: EMSA; conditions: 50 mM Tris-HCl pH 7.5 (25 C), 100 mM KCl, 2 mM 2-mercaptoethanol, 0.1 mg/mL BSA, 0.05% NP-40; FA at 30 C; nucleosome EMSA with 5% glycerol at 4 C (+5 ng/uL …)
# [4] = test system: PRC2-PALI1 PIR-long (Homo sapiens), Q15910-2+O75530+Q15022+Q09028+Q96JN0-3; assay: EMSA; conditions: 50 mM Tris-HCl pH 7.5 (25 C), 100 mM KCl, 2 mM 2-mercaptoethanol, 0.1 mg/mL BSA, 0.05% NP-40; FA at 30 C; nucleosome EMSA with 5% glycerol at 4 C (+5 ng/uL …)
# Chain of PRC2 core (EZH2-EED-SUZ12-RBBP4) (Homo sapiens), Q15910-2+O75530+Q15022+Q09028 (Q15910 other isoform, or with tags, fused parts or gaps, chain 1 of 4): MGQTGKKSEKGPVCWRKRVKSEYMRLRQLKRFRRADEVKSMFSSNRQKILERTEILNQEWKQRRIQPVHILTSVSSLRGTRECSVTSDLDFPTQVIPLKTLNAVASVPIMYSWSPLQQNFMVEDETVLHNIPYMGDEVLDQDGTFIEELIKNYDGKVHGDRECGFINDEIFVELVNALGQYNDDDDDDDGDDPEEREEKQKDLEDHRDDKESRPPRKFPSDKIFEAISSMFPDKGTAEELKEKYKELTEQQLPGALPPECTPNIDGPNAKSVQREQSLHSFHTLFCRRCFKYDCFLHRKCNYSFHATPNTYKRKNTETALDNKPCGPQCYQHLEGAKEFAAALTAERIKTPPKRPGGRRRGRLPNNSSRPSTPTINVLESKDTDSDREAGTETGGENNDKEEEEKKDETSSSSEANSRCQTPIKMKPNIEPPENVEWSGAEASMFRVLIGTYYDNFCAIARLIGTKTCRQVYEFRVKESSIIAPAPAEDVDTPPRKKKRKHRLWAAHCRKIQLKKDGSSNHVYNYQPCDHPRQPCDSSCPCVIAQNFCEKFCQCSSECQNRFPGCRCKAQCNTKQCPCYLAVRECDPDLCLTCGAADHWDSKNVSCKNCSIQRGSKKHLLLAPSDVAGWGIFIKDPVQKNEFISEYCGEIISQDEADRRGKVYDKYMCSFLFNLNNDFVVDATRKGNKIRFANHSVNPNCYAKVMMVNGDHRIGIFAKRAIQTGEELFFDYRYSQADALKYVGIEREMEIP
# Chain of PRC2 core (EZH2-EED-SUZ12-RBBP4) (Homo sapiens), Q15910-2+O75530+Q15022+Q09028 (O75530 whole entry, chain 2 of 4): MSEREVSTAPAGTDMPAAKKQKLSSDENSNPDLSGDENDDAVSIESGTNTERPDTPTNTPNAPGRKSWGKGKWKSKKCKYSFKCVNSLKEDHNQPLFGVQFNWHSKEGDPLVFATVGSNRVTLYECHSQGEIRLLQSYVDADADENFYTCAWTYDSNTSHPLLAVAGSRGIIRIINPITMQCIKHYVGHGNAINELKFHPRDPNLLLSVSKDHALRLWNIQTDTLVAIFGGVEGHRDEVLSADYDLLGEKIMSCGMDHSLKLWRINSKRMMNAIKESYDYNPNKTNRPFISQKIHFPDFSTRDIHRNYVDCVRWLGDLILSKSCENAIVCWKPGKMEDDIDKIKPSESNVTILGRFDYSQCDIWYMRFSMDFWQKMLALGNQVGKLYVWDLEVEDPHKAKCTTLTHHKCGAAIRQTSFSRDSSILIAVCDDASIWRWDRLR
# Chain of PRC2 core (EZH2-EED-SUZ12-RBBP4) (Homo sapiens), Q15910-2+O75530+Q15022+Q09028 (Q15022 whole entry, chain 3 of 4): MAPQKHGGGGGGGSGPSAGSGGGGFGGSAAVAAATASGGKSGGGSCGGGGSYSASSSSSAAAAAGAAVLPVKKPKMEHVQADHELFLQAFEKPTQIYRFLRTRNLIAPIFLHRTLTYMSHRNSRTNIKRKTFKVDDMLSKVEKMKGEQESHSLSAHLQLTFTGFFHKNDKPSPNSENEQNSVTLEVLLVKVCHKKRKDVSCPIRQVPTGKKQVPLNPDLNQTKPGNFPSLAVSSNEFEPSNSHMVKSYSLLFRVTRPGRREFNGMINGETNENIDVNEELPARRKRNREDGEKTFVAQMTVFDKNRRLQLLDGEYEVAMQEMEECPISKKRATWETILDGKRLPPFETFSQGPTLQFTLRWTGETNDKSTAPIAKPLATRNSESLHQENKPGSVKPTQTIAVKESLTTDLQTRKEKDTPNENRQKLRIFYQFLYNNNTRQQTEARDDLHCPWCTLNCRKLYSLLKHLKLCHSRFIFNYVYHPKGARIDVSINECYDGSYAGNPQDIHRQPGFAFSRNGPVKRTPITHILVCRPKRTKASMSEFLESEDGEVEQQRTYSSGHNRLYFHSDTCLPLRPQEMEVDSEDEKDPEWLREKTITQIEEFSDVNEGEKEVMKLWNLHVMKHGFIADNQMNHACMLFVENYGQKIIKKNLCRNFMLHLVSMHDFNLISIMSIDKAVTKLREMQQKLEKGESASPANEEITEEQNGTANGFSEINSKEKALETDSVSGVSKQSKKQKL
# Chain of PRC2 core (EZH2-EED-SUZ12-RBBP4) (Homo sapiens), Q15910-2+O75530+Q15022+Q09028 (Q09028 whole entry, chain 4 of 4): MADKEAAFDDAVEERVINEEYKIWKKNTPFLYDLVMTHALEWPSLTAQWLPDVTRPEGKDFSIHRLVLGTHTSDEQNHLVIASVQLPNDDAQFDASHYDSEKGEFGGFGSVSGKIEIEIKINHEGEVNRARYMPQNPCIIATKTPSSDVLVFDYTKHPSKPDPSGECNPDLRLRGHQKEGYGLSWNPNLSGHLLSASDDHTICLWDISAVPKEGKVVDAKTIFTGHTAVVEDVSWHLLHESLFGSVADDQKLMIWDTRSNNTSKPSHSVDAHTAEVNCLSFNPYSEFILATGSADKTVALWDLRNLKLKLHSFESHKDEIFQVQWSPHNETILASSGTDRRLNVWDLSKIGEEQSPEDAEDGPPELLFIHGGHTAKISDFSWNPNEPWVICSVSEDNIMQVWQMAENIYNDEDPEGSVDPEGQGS
# Chain of EED (amino acids 40-441) (human) (O75530 40-441): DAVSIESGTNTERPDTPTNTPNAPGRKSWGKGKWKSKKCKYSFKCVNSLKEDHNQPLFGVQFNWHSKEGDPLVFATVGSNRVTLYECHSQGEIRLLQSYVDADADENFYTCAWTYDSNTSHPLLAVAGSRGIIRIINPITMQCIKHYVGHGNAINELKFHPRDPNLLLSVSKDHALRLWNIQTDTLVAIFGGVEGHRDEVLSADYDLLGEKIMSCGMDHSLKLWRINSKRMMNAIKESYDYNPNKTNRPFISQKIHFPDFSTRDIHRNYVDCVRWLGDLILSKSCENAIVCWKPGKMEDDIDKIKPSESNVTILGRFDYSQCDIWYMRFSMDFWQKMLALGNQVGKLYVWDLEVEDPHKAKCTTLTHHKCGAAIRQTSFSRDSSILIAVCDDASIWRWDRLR
Substance,Kd [2] [nM],Kd [3] [nM],further results
PALI2-K1558me3 peptide,,,Kd [1]: 8810 nM
"ACCTCGCGAATGCATCTAGATGATATCGAGAATCCCGGTGCCGAGGCCGCTCAATTGGTCGTAGACAGCTCTAGCACCGCTTAAACGCACGTACGCGCTGTCCCCCGCGTTTTAACCGCCAAGGGGATTACTCCCTAGTCTCCAGGCACGTGTCAGATATATACATCCGATATCGGCGCCCT (double strand) [NCP182, H2A-Cy5]",17.1,1410,
"ACCTCGCGAATGCATCTAGATGATATCGAGAATCCCGGTGCCGAGGCCGCTCAATTGGTCGTAGACAGCTCTAGCACCGCTTAAACGCACGTACGCGCTGTCCCCCGCGTTTTAACCGCCAAGGGGATTACTCCCTAGTCTCCAGGCACGTGTCAGATATATACATCCGATATCGGCGCCCT (double strand) [mononucleosome 182 bp, Cy5-DNA]",,330,Kd [4]: 19 nM
"CTGGAGAATCCCGGTGCCGAGGCCGCTCAATTGGTCGTAGACAGCTCTAGCACCGCTTAAACGCACGTACGCGCTGTCCCCCGCGTTTTAACCGCCAAGGGGATTACTCCCTAGTCTCCAGGCACGTGTCAGATATATACATCCTGT (double strand) [NCP147, H2A-Cy5]",48.5,2560,
PALI1-K1214me3 peptide,,,fold lower affinity than PALI1-K1219me3 and PALI1-K1241me3 [1]: 4 fold
